Experimental data as given in article PMC12187869, “Transport of the uremic toxin symmetric dimethylarginine (SDMA) by renal transport proteins” (Amino Acids, 2025).

Substrate: CN=C(NC)NCCC[C@H](N)C(=O)O
Experiment: [3H]SDMA uptake kinetics (Km) and efflux in HEK-OATP4C1 cells
Assay type: cell-based, Homo sapiens

B1: OATP4C1 (Homo sapiens) (protein)
chain: MKSAKGIENLAFVPSSPDILRRLSASPSQIEVSALSSDPQRENSQPQELQKPQEPQKSPEPSLPSAPPNVSEEKLRSLSLSEFEEGSYGWRNFHPQCLQRCNTPGGFLLHYCLLAVTQGIVVNGLVNISISTVEKRYEMKSSLTGLISSSYDISFCLLSLFVSFFGERGHKPRWLAFAAFMIGLGALVFSLPQFFSGEYKLGSLFEDTCVTTRNSTSCTSSTSSLSNYLYVFILGQLLLGAGGTPLYTLGTAFLDDSVPTHKSSLYIGTGYAMSILGPAIGYVLGGQLLTIYIDVAMGESTDVTEDDPRWLGAWWIGFLLSWIFAWSLIIPFSCFPKHLPGTAEIQAGKTSQAHQSNSNADVKFGKSIKDFPAALKNLMKNAVFMCLVLSTSSEALITTGFATFLPKFIENQFGLTSSFAATLGGAVLIPGAALGQILGGFLVSKFRMTCKNTMKFALFTSGVALTLSFVFMYAKCENEPFAGVSESYNGTGELGNLIAPCNANCNCSRSYYYPVCGDGVQYFSPCFAGCSNPVAHRKPKVYYNCSCIERKTEITSTAETFGFEAKAGKCETHCAKLPIFLCIFFIVIIFTFMAGTPITVSILRCVNHRQRSLALGIQFMVLRLLGTIPGPIIFGFTIDSTCILWDINDCGIKGACWIYDNIKMAHMLVAISVTCKVITMFFNGFAIFLYKPPPSATDVSFHKENAVVTNVLAEQDLNKIVKEG
notes: HEK293 cells stably expressing human OATP4C1
Km: 70 µM
